Earlier results on four substances are cited in publication PMC3433420.

Read-outs that look alike come from different tables or passages of the source.

Targets include PIK3R2-N (Homo sapiens) (UniProt O00459); SHC3 (Homo sapiens) (UniProt Q92529); PLCG1-C (Homo sapiens) (UniProt P19174); FGR (Homo sapiens) (UniProt P09769); YES1 (Homo sapiens) (UniProt P07947); SYK-NC (Homo sapiens) (UniProt P43405); ITK (Homo sapiens) (UniProt Q08881); PIK3R1-NC (Homo sapiens) (UniProt P27986); GRB7 (Homo sapiens) (UniProt Q14451); BLK (Homo sapiens) (UniProt P51451); VAV3 (Homo sapiens) (UniProt Q9UKW4); PIK3R1-C (Homo sapiens) (UniProt P27986); PIK3R3-C (Homo sapiens) (UniProt Q92569); NCK1 (Homo sapiens) (UniProt P16333); SHC1-PTB (Homo sapiens) (UniProt P29353); SOCS2 (Homo sapiens) (UniProt O14508); PIK3R3-NC (Homo sapiens) (UniProt Q92569); BCAR3 (Homo sapiens) (UniProt O75815); TNS1 (Homo sapiens) (UniProt Q9HBL0).

What all share (conditions): cited from earlier work
Data set [1] has as its target ABL1 (Homo sapiens) (UniProt P00519).
In data set [2] the target is VAV1 (Homo sapiens) (UniProt P15498).
VAV1 (Homo sapiens), sequence (P15498 666-770): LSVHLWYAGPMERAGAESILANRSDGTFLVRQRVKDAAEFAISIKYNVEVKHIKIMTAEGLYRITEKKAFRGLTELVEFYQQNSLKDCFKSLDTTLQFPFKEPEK
The target in data set [3] is VAV2 (Homo sapiens) (UniProt P52735).
VAV2 (Homo sapiens), sequence (P52735 668-772): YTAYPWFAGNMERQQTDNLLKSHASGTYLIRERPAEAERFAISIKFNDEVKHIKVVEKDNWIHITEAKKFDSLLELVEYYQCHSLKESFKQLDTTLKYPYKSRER
Data set [4] concerns the target PIK3R3-N (Homo sapiens) (UniProt Q92569).
The target in data set [5] is PLCG1-NC (Homo sapiens) (UniProt P19174).
PLCG1-NC (Homo sapiens), sequence (P19174 545-761): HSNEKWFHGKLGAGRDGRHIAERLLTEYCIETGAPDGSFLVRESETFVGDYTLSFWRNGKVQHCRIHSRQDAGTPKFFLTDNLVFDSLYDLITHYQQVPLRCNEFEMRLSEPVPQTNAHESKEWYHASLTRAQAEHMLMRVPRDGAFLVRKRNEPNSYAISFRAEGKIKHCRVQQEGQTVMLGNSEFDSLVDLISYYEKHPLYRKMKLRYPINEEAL
Data set [6] has as its target VAV1 (Homo sapiens) (UniProt P15498). This is another data set of the same source.
Data set [7] deals with PIK3R3-N (Homo sapiens) (UniProt Q92569). This is another data set of the same source.
Data set [8] deals with PLCG1-NC (Homo sapiens) (UniProt P19174). This is another data set of the same source.
In data set [9] the target is ABL1 (Homo sapiens) (UniProt P00519). This is another data set of the same source.
ABL1 (Homo sapiens), sequence (P00519 122-222): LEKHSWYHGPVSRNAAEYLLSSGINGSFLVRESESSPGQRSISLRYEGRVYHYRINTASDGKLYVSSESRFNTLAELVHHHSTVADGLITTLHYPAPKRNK
Data set [10] has as its target VAV1 (Homo sapiens) (UniProt P15498). This is another data set of the same source.
The target of data set [11] is VAV2 (Homo sapiens) (UniProt P52735). The source holds these as a separate data set.

VAV3 (Homo sapiens), sequence (Q9UKW4 667-771): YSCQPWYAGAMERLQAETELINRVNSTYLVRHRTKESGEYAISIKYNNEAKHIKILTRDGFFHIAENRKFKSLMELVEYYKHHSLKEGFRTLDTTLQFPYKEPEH
PIK3R1-C (Homo sapiens), sequence (P27986 328-723): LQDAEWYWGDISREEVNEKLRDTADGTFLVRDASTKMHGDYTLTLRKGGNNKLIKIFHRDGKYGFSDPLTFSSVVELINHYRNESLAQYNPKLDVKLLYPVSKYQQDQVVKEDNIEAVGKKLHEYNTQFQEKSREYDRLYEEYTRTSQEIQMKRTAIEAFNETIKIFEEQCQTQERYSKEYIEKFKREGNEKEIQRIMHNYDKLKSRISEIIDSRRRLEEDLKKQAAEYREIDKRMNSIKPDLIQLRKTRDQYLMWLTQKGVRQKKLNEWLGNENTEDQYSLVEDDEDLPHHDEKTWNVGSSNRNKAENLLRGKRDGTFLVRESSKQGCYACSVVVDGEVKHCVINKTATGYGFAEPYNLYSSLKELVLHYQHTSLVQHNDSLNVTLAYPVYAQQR
PIK3R1-NC (Homo sapiens), sequence (P27986 328-723): as above
PLCG1-C (Homo sapiens), sequence (P19174 545-761): as the sequence (P19174 545-761) above
TNS1 (Homo sapiens), sequence (Q9HBL0 1562-1681): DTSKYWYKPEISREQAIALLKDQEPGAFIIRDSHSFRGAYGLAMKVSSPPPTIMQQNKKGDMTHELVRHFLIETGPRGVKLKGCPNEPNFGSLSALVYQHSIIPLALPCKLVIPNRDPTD
PIK3R2-N (Homo sapiens), sequence (O00459 325-721): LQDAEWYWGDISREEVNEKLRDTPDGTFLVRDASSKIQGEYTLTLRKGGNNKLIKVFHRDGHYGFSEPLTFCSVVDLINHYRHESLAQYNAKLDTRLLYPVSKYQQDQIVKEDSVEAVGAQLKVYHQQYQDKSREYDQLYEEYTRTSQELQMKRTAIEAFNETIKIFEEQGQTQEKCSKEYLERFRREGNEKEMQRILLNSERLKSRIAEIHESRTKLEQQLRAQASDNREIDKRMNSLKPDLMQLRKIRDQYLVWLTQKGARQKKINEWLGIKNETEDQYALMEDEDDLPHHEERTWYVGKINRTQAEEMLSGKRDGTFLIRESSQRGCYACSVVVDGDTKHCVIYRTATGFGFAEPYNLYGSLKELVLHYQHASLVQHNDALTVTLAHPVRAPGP
SOCS2 (Homo sapiens), sequence (O14508 43-161): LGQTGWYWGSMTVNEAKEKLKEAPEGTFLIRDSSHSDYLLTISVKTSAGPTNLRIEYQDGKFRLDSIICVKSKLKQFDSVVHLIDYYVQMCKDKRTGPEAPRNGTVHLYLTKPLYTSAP
BLK (Homo sapiens), sequence (P51451 119-225): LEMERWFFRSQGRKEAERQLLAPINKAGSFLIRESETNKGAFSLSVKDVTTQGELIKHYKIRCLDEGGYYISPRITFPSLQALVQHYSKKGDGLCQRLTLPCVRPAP
ITK (Homo sapiens), sequence (Q08881 234-343): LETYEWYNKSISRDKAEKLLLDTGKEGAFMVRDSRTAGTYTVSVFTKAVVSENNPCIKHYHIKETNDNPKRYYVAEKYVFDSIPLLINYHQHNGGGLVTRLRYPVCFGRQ
SHC3 (Homo sapiens), sequence (Q92529 494-594): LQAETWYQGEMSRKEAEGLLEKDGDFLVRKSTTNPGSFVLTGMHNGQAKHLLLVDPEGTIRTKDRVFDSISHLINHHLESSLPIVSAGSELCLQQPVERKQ
YES1 (Homo sapiens), sequence (P07947 153-260): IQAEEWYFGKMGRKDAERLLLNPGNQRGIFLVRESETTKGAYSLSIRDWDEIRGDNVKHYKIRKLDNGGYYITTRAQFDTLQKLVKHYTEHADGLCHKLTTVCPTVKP
GRB7 (Homo sapiens), sequence (Q14451 426-532): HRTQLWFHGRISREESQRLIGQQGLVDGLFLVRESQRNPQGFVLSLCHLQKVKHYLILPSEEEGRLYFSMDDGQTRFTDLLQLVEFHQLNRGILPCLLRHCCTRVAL
BCAR3 (Homo sapiens), sequence (O75815 149-258): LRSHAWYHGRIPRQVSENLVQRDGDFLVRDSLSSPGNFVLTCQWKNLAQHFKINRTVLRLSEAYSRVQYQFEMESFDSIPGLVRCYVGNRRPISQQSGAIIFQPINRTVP
SHC1-PTB (Homo sapiens), sequence (P29353 483-583): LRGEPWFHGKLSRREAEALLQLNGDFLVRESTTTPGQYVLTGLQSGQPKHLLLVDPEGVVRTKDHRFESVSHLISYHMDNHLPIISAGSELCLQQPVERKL

As for …pYEEMRAFQ, the apparent Kd (screen) was 49 nM in the data set with PIK3R2-N (Homo sapiens); 633 nM with ABL1 (Homo sapiens) [1]; 123 nM with SHC3 (Homo sapiens); 321 nM with PLCG1-C (Homo sapiens); 1160 nM with FGR (Homo sapiens); 2000 nM with YES1 (Homo sapiens). In addition, the apparent Kd (screen) is 499 nM in the data set with VAV1 (Homo sapiens) [2]; 1100 nM in the data set with SYK-NC (Homo sapiens); 499 nM with ITK (Homo sapiens); 49 nM with PIK3R1-NC (Homo sapiens); 1520 nM with GRB7 (Homo sapiens).

…pYLIPQQGFd: the apparent Kd (screen) with VAV2 (Homo sapiens) [3] is 85 nM; in the data set with BLK (Homo sapiens), 658 nM; with PIK3R3-N (Homo sapiens) [4], 470 nM; with PLCG1-NC (Homo sapiens) [5], 794 nM; in the data set with VAV3 (Homo sapiens), 2000 nM; in the data set with PIK3R1-C (Homo sapiens), 873 nM. The apparent Kd (screen) is 193 nM with PIK3R3-C (Homo sapiens), 1000 nM with NCK1 (Homo sapiens) and 1050 nM with VAV1 (Homo sapiens) [6].

For the substance …pYLVPQQGF, the apparent Kd (screen) was 2000 nM with SHC1-PTB (Homo sapiens), 2000 nM with SOCS2 (Homo sapiens), 1930 nM with PIK3R3-N (Homo sapiens) [7] and 2000 nM with PLCG1-NC (Homo sapiens) [8].

On to …pYWDQDPPE, for which the apparent Kd (screen) was 1840 nM with ABL1 (Homo sapiens) [9]; 2000 nM in the data set with VAV1 (Homo sapiens) [10]; 783 nM with PIK3R3-NC (Homo sapiens); 2000 nM with VAV2 (Homo sapiens) [11]; 2000 nM with BCAR3 (Homo sapiens); 2000 nM with TNS1 (Homo sapiens).
